From patent US20230212549A1, “COMPOUNDS COMPRISING A […] LIGAND AND USE THEREOF” (priority 2021, published 2023)
Bridge positions count the residues as written; N and C are the ends.

T1: Potassium Channel hERG (human) (human), Q12809
T1 chain: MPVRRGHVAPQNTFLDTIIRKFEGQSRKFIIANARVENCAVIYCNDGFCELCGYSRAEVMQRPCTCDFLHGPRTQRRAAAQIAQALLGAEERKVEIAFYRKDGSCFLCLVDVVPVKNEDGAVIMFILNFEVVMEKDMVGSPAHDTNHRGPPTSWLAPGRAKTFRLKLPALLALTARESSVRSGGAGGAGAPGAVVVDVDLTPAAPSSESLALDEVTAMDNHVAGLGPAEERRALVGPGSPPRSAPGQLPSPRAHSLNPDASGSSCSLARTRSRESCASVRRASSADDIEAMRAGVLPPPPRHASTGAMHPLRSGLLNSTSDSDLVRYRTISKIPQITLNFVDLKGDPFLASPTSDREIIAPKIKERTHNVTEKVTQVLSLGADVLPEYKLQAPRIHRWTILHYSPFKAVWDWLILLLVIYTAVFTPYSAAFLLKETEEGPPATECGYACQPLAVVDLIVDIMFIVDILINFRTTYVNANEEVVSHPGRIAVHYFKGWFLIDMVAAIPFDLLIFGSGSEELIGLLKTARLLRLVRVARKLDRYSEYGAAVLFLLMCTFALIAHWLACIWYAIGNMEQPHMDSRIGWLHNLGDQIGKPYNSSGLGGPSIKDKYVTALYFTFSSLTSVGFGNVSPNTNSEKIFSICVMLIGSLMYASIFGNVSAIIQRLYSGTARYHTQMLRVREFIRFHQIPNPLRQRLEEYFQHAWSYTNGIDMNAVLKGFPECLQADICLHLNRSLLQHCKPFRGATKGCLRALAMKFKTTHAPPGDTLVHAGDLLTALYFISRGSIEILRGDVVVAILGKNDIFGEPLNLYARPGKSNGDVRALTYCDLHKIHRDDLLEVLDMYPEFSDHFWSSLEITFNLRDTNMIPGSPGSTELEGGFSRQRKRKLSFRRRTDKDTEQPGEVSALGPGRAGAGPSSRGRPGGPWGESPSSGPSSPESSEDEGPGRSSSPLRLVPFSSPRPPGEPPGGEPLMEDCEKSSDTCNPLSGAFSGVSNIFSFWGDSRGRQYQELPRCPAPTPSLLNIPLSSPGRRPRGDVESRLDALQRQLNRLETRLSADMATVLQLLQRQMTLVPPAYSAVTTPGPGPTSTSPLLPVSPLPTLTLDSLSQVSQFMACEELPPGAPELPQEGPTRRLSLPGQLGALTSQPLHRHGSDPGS

T2: MAO-A (Rattus norvegicus (Rat)), P21396
T2 chain: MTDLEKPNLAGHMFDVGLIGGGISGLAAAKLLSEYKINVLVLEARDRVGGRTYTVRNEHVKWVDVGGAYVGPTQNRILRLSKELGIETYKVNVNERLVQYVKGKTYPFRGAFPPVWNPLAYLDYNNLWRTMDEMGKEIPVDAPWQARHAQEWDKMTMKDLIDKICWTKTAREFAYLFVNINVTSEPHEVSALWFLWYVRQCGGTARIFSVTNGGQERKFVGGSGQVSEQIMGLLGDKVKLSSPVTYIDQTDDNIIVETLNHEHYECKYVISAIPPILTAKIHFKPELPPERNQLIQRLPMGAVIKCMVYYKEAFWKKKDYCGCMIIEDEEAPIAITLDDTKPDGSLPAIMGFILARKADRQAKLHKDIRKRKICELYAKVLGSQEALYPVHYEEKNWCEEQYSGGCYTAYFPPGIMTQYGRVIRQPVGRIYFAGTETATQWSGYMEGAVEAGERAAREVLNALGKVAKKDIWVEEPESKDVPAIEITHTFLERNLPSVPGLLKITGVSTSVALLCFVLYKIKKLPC

T3: D1 (h) (human), P21728
T3 chain: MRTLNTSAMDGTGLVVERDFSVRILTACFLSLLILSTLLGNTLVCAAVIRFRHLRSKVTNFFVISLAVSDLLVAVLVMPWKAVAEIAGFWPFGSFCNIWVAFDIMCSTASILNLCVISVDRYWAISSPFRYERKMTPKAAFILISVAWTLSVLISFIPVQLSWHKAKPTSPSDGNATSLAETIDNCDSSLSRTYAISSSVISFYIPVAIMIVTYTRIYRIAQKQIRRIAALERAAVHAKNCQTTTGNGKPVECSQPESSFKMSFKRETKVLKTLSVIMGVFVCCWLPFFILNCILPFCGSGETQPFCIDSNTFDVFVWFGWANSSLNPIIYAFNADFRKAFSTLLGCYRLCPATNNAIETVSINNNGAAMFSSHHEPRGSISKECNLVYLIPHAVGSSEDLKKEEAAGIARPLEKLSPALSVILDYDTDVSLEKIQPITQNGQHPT

T4: alpha 1A (h) (human), P35348
T4 chain: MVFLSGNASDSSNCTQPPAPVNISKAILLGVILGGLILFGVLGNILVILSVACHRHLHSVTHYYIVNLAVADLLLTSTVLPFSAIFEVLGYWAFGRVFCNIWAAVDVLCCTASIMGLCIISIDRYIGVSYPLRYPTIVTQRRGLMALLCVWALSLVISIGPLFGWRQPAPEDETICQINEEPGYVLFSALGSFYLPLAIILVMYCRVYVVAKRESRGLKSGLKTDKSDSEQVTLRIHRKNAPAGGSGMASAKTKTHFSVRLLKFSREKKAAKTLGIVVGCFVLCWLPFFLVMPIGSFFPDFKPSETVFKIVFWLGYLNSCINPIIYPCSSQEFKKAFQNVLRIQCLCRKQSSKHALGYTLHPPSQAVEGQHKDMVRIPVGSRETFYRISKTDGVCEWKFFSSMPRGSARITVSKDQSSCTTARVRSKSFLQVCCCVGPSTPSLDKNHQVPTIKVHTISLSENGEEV


What was measured:
[1] = biological target: T1, Potassium Channel hERG (human) (human), …; experiment: radioligand displacement ([3H] Dofetilide), 10 µM; settings: remark: other sources report otherwise
[2] = biological target: M3 (h) (human), P20309; experiment: radioligand displacement (antagonist radioligand), 10 µM; settings: remark: other sources report otherwise
Sequence of M3 (h) (human), P20309 (P20309 whole entry): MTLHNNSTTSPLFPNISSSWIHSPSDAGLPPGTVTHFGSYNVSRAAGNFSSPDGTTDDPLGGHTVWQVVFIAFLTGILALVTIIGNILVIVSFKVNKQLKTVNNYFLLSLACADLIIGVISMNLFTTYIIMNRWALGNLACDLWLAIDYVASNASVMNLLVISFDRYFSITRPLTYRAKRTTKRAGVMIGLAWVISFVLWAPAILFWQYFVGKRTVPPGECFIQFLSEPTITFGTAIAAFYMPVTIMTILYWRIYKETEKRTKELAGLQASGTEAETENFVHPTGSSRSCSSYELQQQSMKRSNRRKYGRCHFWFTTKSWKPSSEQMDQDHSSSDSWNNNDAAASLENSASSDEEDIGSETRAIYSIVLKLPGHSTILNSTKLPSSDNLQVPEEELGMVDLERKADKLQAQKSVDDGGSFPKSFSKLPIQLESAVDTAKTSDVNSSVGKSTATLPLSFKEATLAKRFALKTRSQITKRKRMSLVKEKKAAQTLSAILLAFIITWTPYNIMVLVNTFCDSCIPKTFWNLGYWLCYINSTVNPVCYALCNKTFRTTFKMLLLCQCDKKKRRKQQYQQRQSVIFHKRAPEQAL

[3] = biological target: T2, MAO-A (Rattus norvegicus (Rat)), P21396; experiment: as above
[4] = biological target: H1 (h) (human), P35367; experiment: as above; settings: remark: other sources report otherwise
Sequence of H1 (h) (human), P35367 (P35367 whole entry): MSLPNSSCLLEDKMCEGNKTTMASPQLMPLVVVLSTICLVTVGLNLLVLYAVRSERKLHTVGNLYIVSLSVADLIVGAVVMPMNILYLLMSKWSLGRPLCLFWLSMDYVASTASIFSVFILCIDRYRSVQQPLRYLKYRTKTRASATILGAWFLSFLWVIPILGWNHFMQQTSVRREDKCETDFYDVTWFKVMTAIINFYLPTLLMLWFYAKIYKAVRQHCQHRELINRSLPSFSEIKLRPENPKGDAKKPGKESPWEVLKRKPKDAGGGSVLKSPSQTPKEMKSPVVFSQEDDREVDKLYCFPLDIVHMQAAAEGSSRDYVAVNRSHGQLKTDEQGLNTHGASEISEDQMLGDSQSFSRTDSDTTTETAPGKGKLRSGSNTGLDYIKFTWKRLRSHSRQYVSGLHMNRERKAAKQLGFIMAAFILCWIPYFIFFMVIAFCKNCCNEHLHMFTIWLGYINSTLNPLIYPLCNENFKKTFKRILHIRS

[5] = biological target: T3, D1 (h) (human), P21728; experiment: as above; settings: remark: other sources report otherwise
[6] = biological target: beta 2 (h) (human), P07550; experiment: as above; settings: remark: other sources report otherwise
[7] = biological target: T4, alpha 1A (h) (human), P35348; experiment: as above; settings: remark: other sources report otherwise
[8] = biological target: 5-HT1B(h) (human), P28222; experiment: as above; settings: remark: other sources report otherwise
Sequence of 5-HT1B(h) (human), P28222 (P28222 whole entry): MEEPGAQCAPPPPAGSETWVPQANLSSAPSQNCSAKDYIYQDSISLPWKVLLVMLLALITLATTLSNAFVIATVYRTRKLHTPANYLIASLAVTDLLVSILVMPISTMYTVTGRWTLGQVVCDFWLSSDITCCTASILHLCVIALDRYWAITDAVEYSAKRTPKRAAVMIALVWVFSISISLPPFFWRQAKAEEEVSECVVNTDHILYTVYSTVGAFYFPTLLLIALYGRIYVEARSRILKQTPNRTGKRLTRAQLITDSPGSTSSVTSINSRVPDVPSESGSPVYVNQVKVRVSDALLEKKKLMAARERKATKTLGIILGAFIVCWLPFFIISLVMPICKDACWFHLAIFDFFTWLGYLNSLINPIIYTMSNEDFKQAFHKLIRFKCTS

Row | Binder | % Inhibition of Specific Binding [1] | % Inhibition of Specific Binding [2] | % Inhibition of Specific Binding [3] | % Inhibition of Specific Binding [4] | % Inhibition of Specific Binding [5] | % Inhibition of Specific Binding [6] | % Inhibition of Specific Binding [7] | % Inhibition of Specific Binding [8]
1 | Hex-CPPTQFCD-NH2 (bridge 1-7; not fully specified (bridges); printed as Hex-[Cys(tMeBn(DOTA-PP))-Pro-Pro-Thr-Gln-Phe-Cys]-Asp-NH2) [Hex-[Cys(tMeBn(DOTA-PP))-Pro-Pro-Thr-Gln-Phe-Cys]-Asp-NH2] | 2% | 10% | -5% | 11% | 0% | 4% | 2% | -11%
2 | Hex-CPPTQFC-OH (bridge 1-7; not fully specified (bridges); printed as Hex-[Cys(tMeBn(DOTA-AET))-Pro-Pro-Thr-Gln-Phe-Cys]-OH) [Hex-[Cys(tMeBn(DOTA-AET))-Pro-Pro-Thr-Gln-Phe-Cys]-OH] | 6% | 1% | -25% | 4% | 7% | 8% | -12% | 8%
